Test results: patent US5840867

Target: thrombin (UniProt P00734;P00734 P00734:328-363,P00734:364-622)
Test: inhibition; fibrinogen clotting assay

**Q.** Which Ki does the source give for GGTTGGTGTGGTTGGGT (ssDNA, P(O)NH(CH2CH2OCH3) (MEA) linkages between 15-16 and 16-17) [17-mer with 3' MEA linkages GGTTGGTGTGGTTGG#G#T] here?
**A.** Its Ki is 35 nM.

**Q.** With GGTTGGTGTGGTTGG (ssDNA, PS linkages between 13-14 and 14-15) [15-mer with 3' thioates GGTTGGTGTGGTT*G*G] as the binder, how does the Ki read?
**A.** The Ki was 40 nM.

**Q.** GGTTGGTGTGGTTGG (ssDNA, dU at positions 7 and 9 [n positions 7,9 = modified dU]) [15-mer GGTTGG(dU)G(dU)GGTTGG] was tested. Which Ki did it give?
**A.** Its Ki is 15 nM.

B1: 15-mer GGTTGGTGTGGTU'GG (ssDNA)
DNA: GGTTGGTGTGGTTGG
modifications: 5-(1-pentynyl)uracil at position 13 [13 = 5-(1-pentynyl)uracil (dU analog written as T)]
**Q.** How did the Ki turn out when B1 was run?
**A.** The Ki was 20 nM.

**Q.** With GGTTGGTGTGGTTGG (ssDNA, dU at positions 3 and 12 [n positions 3,12 = modified dU]) [15-mer GG(dU)TGGTGTGG(dU)TGG] as the binder, how does the Ki read?
**A.** The Ki was 80 nM.

**Q.** GGTTGGTGTGGTTGG (ssDNA, PS at all linkages) [15-mer all thioate] was tested. Which Ki did it give?
**A.** The Ki was 280 nM.
